Data as given in patent publication US20240182592A1 (CHIA TAI TIANQING PHARMACEUTICAL GROUP, published 2024).
Like-named read-outs stand apart in the source and are kept apart here.

T1: human BCMA protein (human, UniProt Q02223 1-54, limits assumed)
T1 construct: also called hBCMA; Antigen BCMA
T1 sequence (looked up): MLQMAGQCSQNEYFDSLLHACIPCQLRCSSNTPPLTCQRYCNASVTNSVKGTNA

T2: human BCMA on cells (human, UniProt Q02223 1-184)
T2 construct: whole, on cells; also called CHO-hBCMA cells; U266 cells
T2 sequence (looked up): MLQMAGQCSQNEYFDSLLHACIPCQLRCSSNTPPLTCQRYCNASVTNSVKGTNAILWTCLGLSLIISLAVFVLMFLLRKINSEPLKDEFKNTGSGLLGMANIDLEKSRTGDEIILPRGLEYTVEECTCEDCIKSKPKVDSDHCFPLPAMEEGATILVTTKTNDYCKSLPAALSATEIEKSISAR


Tests used:
[1] = target: T1, human BCMA protein; experiment: SPR (Biacore T200), antibody captured by anti-hIgG, human BCMA as analyte, 1:1 model
Experimental: The affinity of the test antibody for human BCMA protein was determined by Biacore T200 (GE) as follows:
(§1) The response signals were detected in real time using Biacore software, and association and dissociation curves were obtained. The buffer used in the experiment was Biacore universal buffer (137 mM NaCl, 2.7 mM KCl, 10 mM Na₂HPO₄.12H₂O, 1.8 mM KH₂PO₄, 0.05% surfactant P-20 (w/v), pH 7.4). […] The flow rate in the flow cell was at 50 μL/min, the association was performed for 240 s, the dissociation was performed for 1400 s, the regeneration was performed using 3 M MgCl₂ (GE) for 60 s, and the baseline was stable. Results were obtained by calculation according to the affinity and kinetics 1:1 binding mode in biacore evaluation software.

[2] = target: T2, human BCMA on cells; experiment: flow cytometry, NCI-H929 cells
Experimental: (§2) NCI-H929 cells (BCMA+++), MM1S cells (BCMA++), and RPMI-8226 cells (BCMA+) in the logarithmic growth phase were taken, adjusted to a cell density of 5×10⁶-10×10⁶ cells/mL using RPMI medium (Hyclon, catalog No. SH30809.01) containing 2% FBS (fetal bovine serum), respectively, and seeded in a 96-well U-bottom cell culture plate (Costar, catalog No. 3799) at 50 μL per well. The test antibodies at different concentrations were prepared using the medium described above. […] The antibodies at different concentrations were added to the 96-well cell culture plate described above at 50 μL per well, mixed well and incubated at 4° C. for 1 h. The cells were washed with pre-cooled running buffer (MACS, catalog No. 130-091-221), and the supernatant was discarded. Pre-cooled fluorescent labeled goat anti-human IgG antibodies (Jackson, catalog No. 109-116-170) were added, and the cells were resuspended at 100 μL per well, mixed well and incubated at 4° C. for 30 min. After washing, 100 μL of pre-cooled running buffer was added to resuspend the cells. The cells were mixed well and collected while flowing on an Attune™ NxT flow cytometer, and the data was analyzed using Graphpad Prism5 software. FIGS. 7-9 and Table 11 show the binding ability of the anti-BCMA/anti-CD3 multispecific antibodies to NCI-H929 cells (BCMA+++), MM1S cells (BCMA++), and RPMI-8226 cells (BCMA+).

[3] = target: T1, human BCMA protein; experiment: SPR (Biacore T200), antibody captured by anti-hIgG, human BCMA as analyte, 1:1 model; remark: listed apart in the source
Experimental: (§3) The affinity of the test antibody for human CD3e or human BCMA protein was determined by Biacore T200 (GE) as follows:
as §1, with “KH₂PO₄.” for “KH₂PO₄,”, “MgCl” for “MgCl₂”

[4] = target: T3, human CD3e (Acro, Cat. No. CDE-H5223) (human, UniProt P07766 23-126); experiment: SPR (Biacore T200), antibody captured by anti-hIgG, human CD3e as analyte, 1:1 model
T3 construct: also called human CD3e protein; hCD3e
T3 sequence (P07766 23-126 limits assumed): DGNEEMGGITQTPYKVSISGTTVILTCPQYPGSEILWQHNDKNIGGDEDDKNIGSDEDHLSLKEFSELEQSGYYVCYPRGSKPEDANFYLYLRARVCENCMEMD
Experimental: as §3
as §1, with “KH₂PO₄.” for “KH₂PO₄,”, “MgCl” for “MgCl₂”

[5] = target: T2, human BCMA on cells; experiment: flow cytometry, MM1S cells
Experimental: as §2

[6] = target: T2, human BCMA on cells; experiment: cell-based or functional assay
[7] = target: T4, T cell surface CD3 (human, UniProt P07766 23-207); experiment: flow cytometry, human CD3+ T cells
T4 construct: whole, on cells; also called CD3^+ T cells
T4 sequence (P07766 23-207): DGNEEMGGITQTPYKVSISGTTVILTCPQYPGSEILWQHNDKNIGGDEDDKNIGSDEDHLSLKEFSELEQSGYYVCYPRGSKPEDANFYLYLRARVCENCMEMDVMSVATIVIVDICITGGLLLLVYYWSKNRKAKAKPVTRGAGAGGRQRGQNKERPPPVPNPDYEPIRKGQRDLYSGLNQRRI
Experimental: Human PBMC cells were sorted for CD3⁺ T cells using CD3 magnetic beads (Miltenyi, catalog No. 130-097-043): the cryopreserved PBMCs were thawed, and washed by centrifugation twice for counting. Running buffer (MACS, catalog No. 130-091-221) was added in a cell-to-buffer ratio of 10⁷:80 μL, CD3 beads were added in a cell-to-bead ratio of 10⁷:20 μL, and the mixture was mixed well and incubated at 4° C. for 15 min. The cells were washed with buffer in a cell-to-buffer ratio of 10⁷:1-2 mL. After centrifugation, the supernatant was discarded, and 500 μL of buffer was added to resuspend the cell pellet. The LS sorting column (Miltenyi, catalog No. 130-042-401) was placed on the MidiMACS Starting Kit (LS) magnetic rack (Miltenyi, catalog No. 130-091-051). After rinsing, the cell suspension was added and washed thrice. The LS sorting column was removed from the magnetic rack and placed on a clean centrifuge tube and 5 mL buffer was added to collect the sorted CD3⁺ T cells. After counting, the CD3⁺ T cells were adjusted to a cell density of 5×10⁶-10×10⁶ cells/mL using RPMI medium (Hyclone, catalog No. SH30809.01) containing 2% FBS (fetal bovine serum) and seeded in a 96-well U-bottom cell culture plate (Costar, catalog No. 3799) at 50 μL per well. The test antibodies at different concentrations were prepared using the medium described above. […] The antibodies at different concentrations were added to the 96-well cell culture plate described above at 50 μL per well, mixed well and incubated at 4° C. for 1 h. The cells were washed with pre-cooled running buffer (MACS, catalog No. 130-091-221), and the supernatant was discarded. Pre-cooled fluorescent labeled goat anti-human IgG antibodies (Jackson, catalog No. 109-116-170) were added, and the cells were resuspended at 100 μL per well, mixed well and incubated at 4° C. for 30 min. After washing, 100 μL of pre-cooled running buffer was added to resuspend the cells.

[8] = target: T2, human BCMA on cells; experiment: cell-based or functional assay; remark: listed apart in the source
[9] = target: T2, human BCMA on cells; experiment: cell-based or functional assay; remark: listed apart in the source

Binder | Kd [1] [nM] | EC50 [2] [nM] | Top(MFI) [2] [MFI] | Kd [3] [nM] | Kd [4] [nM] | EC50 [5] [nM] | Top(MFI) [5] [MFI] | Lysis EC50, NCI-H929 cells with human PBMCs (E:T 10:1, 24 h, LDH release) [6] [nM] | Maximum lysis rate, NCI-H929 cells with human PBMCs [6] [%] | EC50 [7] [nM] | Top(MFI) [7] [MFI] | Lysis EC50, RPMI-8226 cells with human PBMCs (E:T 10:1, 24 h, LDH release) [8] [nM] | Maximum lysis rate, RPMI-8226 cells with human PBMCs [8] [%] | Lysis EC50, MM1S cells with human PBMCs (E:T 10:1, 24 h, LDH release) [9] [nM] | Maximum lysis rate, MM1S cells with human PBMCs [9] [%]
1A11-V1 (antibody, human IgG1, V domains shown, Humanized VHH fused to human IgG1 Fc; also called humanized antibody 1A11-V1) VH: QVQLVESGGGLVQPGGSLRLSCAASGFTFNSACMGWFRQAPGKGREGVSRIETGYGGTVYADSVKGRFTISRDNSKNTVYLQMNSLRAEDTAVYYCAAKRSWCTPTWWHELDYNYWGQGTQVTVSS | 5.05 | – | – | – | – | – | – | – | – | – | – | – | – | – | –
1A11-V2 (antibody, human IgG1, V domains shown, Humanized VHH fused to human IgG1 Fc; also called humanized antibody 1A11-V2) VH: QVQLVESGGGLVQPGGSLRLSCAASGFTFNSACMGWFRQAPGKEREGVSRIETGYGGTVYADSVKGRFTISRDNSKNTVYLQMNSLKAEDTAVYYCAAKRSWCTPTWWHELDYNYWGQGTQVTVSS | 4.37 | – | – | – | – | – | – | – | – | – | – | – | – | – | –
anti-BCMA/anti-CD3 multispecific antibody PC1 (bispecific antibody, human IgG1, Trivalent; two chains; human IgG1 knobs-into-holes Fc) chain 1: QVQLVESGGGLVQPGGSLRLSCAASGYSSNVACMAWYRQAPGKGLEWVATIVADFGTTNYAASVKGRFTISQDNSKNTVYLQMNSLRAEDTAVYYCAATQRGGIDWCDEINYWGQGTLVTVSSGGGGSGGGGSQVQLVESGGGLVQPGGSLRLSCAASGFTFNSACMGWFRQAPGKGREGVSRIETGYGGTVYADSVKGRFTISRDNSKNTVYLQMNSLRAEDTAVYYCAAKRSWCTPTWWHELDYNYWGQGTQVTVSSGEPKSSDKTHTCPPCPAPEAAGGPSVFLFPPKPKDTLMISRTPEVTCVVVDVSHEDPEVKFNWYVDGVEVHNAKTKPREEQYNSTYRVVSVLTVLHQDWLNGKEYKCKVSNKALAAPIEKTISKAKGQPREPQVCTLPPSREEMTKNQVSLSCAVKGFYPSDIAVEWESNGQPENNYKTTPPVLDSDGSFFLVSKLTVDKSRWQQGNVFSCSVMHEALHNHYTQKSLSLSPGK chain 2: ELVVTQEPSLTTSPGGTVTLTCRSSTGAVTTSNYANWVQQKPGQAPRGLIGGTNKRAPGTPARFSGSLLGGKAALTITGVQPEDEAEYYCALWYSNLWVFGGGTKLTVLGGGGSGGGGSGGGGSEVQLVESGGGLVQPGGSLRLSCAASGFTFNTYAMNWVRQAPGKGLEWVARIRSKYNNYATYYADSVKDRFTISRDDSKNTAYLQMNNLKTEDTAMYYCVRHGNFGNSYVSWFAYWGQGTLVTVSSGEPKSSDKTHTCPPCPAPEAAGGPSVFLFPPKPKDTLMISRTPEVTCVVVDVSHEDPEVKFNWYVDGVEVHNAKTKPREEQYNSTYRVVSVLTVLHQDWLNGKEYKCKVSNKALAAPIEKTISKAKGQPREPQVYTLPPCREEMTKNQVSLWCLVKGFYPSDIAVEWESNGQPENNYKTTPPVLDSDGSFFLYSKLTVDKSRWQQGNVFSCSVMHEALHNRFTQKSLSLSPGK | – | 1.26 | 226000 | 0.0396 | 1.43 | 0.35 | 100000 | 0.0674 | 36 | 485 | 92900 | 0.007 | 29 | 0.0084 | 26
1A10-V1 (antibody, human IgG1, V domains shown, Humanized VHH fused to human IgG1 Fc; also called humanized antibody 1A10-V1) VH: QVQLVESGGGLVQPGGSLRLSCAASGYSSNVACMAWYRQAPGKGLEWVATIVADFGTTNYAASVKGRFTISQDNSKNTVYLQMNSLRAEDTAVYYCAATQRGGIDWCDEINYWGQGTLVTVSS | 0.337 | – | – | – | – | – | – | – | – | – | – | – | – | – | –
1A10-V2 (antibody, human IgG1, V domains shown, Humanized VHH fused to human IgG1 Fc; also called humanized antibody 1A10-V2) VH: QVQLVESGGGLVQPGGSLRLSCAASGYSSNVACMAWYRQAPGKEREWVSTIVADFGTTNYAASVKGRFTISQDNSKNTVYLQMNSLRAEDTAVYYCAATQRGGIDWCDEINYWGQGTLVTVSS | 1.31 | – | – | – | – | – | – | – | – | – | – | – | – | – | –
anti-BCMA/anti-CD3 bispecific control antibody Benchmark (bispecific antibody, human IgG1, kappa, L234A L235A, Control from Celgene (US20190263920A1): two anti-BCMA Fabs and one anti-CD3 Fab; also called Celgene BM; celgene BM) heavy 1: not shown light 1: not shown heavy 2: not shown light 2: EVQLLESGGGLVQPGGSLRLSCAASGFTFSTYAMNWVRQAPGKGLEWVSRIRSKYNNYATYYADSVKGRFTISRDDSKNTLYLQMNSLRAEDTAVYYCVRHGNFGNSYVSWFAYWGQGTLVTVSSASVAAPSVFIFPPSDEQLKSGTASVVCLLNNFYPREAKVQWKVDNALQSGNSQESVTEQDSKDSTYSLSSTLTLSKADYEKHKVYACEVTHQGLSSPVTKSFNRGEC | – | 0.821 | 166000 | 0.821 | 1.6 | 0.381 | 71400 | 0.0444 | 41 | 18.1 | 93500 | 0.271 | 29 | 0.0847 | 23
